According to patent US20240165165A1, “PHARMACEUTICAL COMPOSITIONS AND THEIR METHODS OF USE” (The Trustees of Indiana University, priority 2021, published 2024):

How the values were obtained:
EO771 cells = test: Western blot of proteins in treated tumor cells; type: cell-based, mouse
Protocol: Western blot analysis and mass spectrometry. Western blot analysis was conducted using known procedures. Antibodies were used against ANXA1, β-catenin, caspase 3, Lrp5, Lrp6, Runx2, Sclerostin, Snail, TGFβ, NFATc1, cathepsin K (Cell Signaling, Danvers, MA, USA), DMP1, ANXA6, CXCL5 (Abcam, Cambridge, MA, USA), M-CSF, MMP9, OPN, TPM4 (Santa Cruz, Dallas, TX, USA), WISP1 (R&D systems, Minneapolis, MN, USA), β-actin (Sigma, Saint Louis, MO, USA), LIMA1, Trail (Novus, Centennial, CO, USA), p53 and CXCL1 (Invitrogen, Carlsbad, California, USA), and DSP (ProteinTech, Rosemont, IL, USA). The expression levels of Sclerostin and Lrp5 in CM were detected by ELISA (My BioSource, San Diego, CA, USA). Proteins from A5 osteocyte CM, Y4 osteocyte CM, and osteoclast control CM (RAW264.7 cells) were analyzed by the HF Hybrid Quadrupole Orbitrap mass spectrometry. Among 549 identified proteins, 49 proteins presented higher expression levels in A5 CM than Y4 CM and control CM. Among them, 11 proteins (p53; SPARC=osteonectin; TPM1, TPM4=tropomyosin 1 & 4; ANXA1, ANXA6=annexin A1 & A6; FMOD=fibromodulin; OGN=osteoglycin; DSP=desmoplakin; AHNAK=desmoyokin; and LIMA1=[…] domain actin-binding protein 1) were identified as potential tumor suppressors.
(§1) Western blot analysis and protein array analysis. Western blot analysis was conducted using the procedure previously described. Antibodies against Lrp5, Runx2, Snail, TGFβ, sclerostin, Calr, p-eIF2α, eIF2α (Cell Signaling, Danvers, MA, USA), LIF, Trail (Novus Biologicals, Centennial, CO, USA), MMP9, NFATc1, cathepsin K (Santa Cruz Biotechnology, Dallas, TX, USA), p53, CXCL2, Ppib (Invitrogen, Carlsbad, CA, USA), Hsp90ab1 (Abcam, Cambridge, UK), and β-actin (Sigma, Saint Louis, MO, USA) were used. A proteome profiler mouse XL cytokine array kit (R&D Systems, Minneapolis, MN, USA) was also employed, and the expression of 111 cytokines and chemokines in MSC-derived CM was determined.
Spheroid assay, plasmid transfection, and Western blot analysis. […]

[1] = test system: 4T1.2 mammary tumor cells; test: EdU proliferation assay; type: cell-based, mouse
Protocol: EdU assay. Approximately 2,000 cells were seeded in 96-well plates on day 1. CM was added on day 2 and cellular proliferation was examined using a fluorescence-based cell proliferation kit (CLICK-IT™ EDU ALEXA FLUOR™ 488 Imaging Kit; Thermo-Fisher, Waltham, MA, USA) on day 4. After fluorescent labeling, the number of fluorescently labeled cells was counted and the ratio to the total number of cells was determined.
In vitro assays. Cellular viability was examined using an MTT assay (Invitrogen, Carlsbad, CA, USA) with the procedure previously described, as well as an EdU assay with a fluorescence-based cell proliferation kit (Thermo-Fisher, Waltham, MA, USA). The recombinant proteins employed included Filamin A, Pkm, Pdia3, Tpm4, Anxa2, Eef1a1, Cts1, Nme2, Dcn, Calr, Aldoa, Calm1, Tpm3, Ppib, Myh9, Ywhae, Hspa5, Hsp90aa1 (MBS962910, MBS8249600, MBS2010131, MBS145304, MBS2009095, MBS2033168, MBS143355, MBS145412, MBS2557309, MBS2009125, MBS8248528, MBS2018713, MBS144696, MBS2009092, MBS717396, MBS143242, MBS806904, MBS142709; MyBioSource, San Diego, CA, USA), Actin Gamma 1, Actn4, Hspa8, Vimentin (H00000071-P01, H00000081-P01, NBP1-30278, NBP2-35139; Novus, Littleton, CO, USA), and Hsp90ab1 (OPCA05157; Aviva system biology, San Diego, CA, USA). […]

[2] = test system: 4T1.2 mammary tumor cells; test: TRANSWELL invasion assay; type: cell-based, mouse
Description: (§2) In vitro assays. Cellular viability was examined using an MTT assay (Invitrogen, Carlsbad, CA, USA) with the procedure previously described, as well as an EdU assay with a fluorescence-based cell proliferation kit (Thermo-Fisher, Waltham, MA, USA). The recombinant proteins employed included Filamin A, Pkm, Pdia3, Tpm4, Anxa2, Eef1a1, Cts1, Nme2, Dcn, Calr, Aldoa, Calm1, Tpm3, Ppib, Myh9, Ywhae, Hspa5, Hsp90aa1 (MBS962910, MBS8249600, MBS2010131, MBS145304, MBS2009095, MBS2033168, MBS143355, MBS145412, MBS2557309, MBS2009125, MBS8248528, MBS2018713, MBS144696, MBS2009092, MBS717396, MBS143242, MBS806904, MBS142709; MyBioSource, San Diego, CA, USA), Actin Gamma 1, Actn4, Hspa8, Vimentin (H00000071-P01, H00000081-P01, NBP1-30278, NBP2-35139; Novus, Littleton, CO, USA), and Hsp90ab1 (OPCA05157; Aviva system biology, San Diego, CA, USA). A TRANSWELL® chamber assay was conducted to detect invasive cellular motility, and a wound-healing scratch assay was utilized to evaluate 2-dimensional migratory behavior. The overexpression of Akt, Lrp5, β-catenin, Snail, Calr, and Ppib was conducted by transfecting plasmids (#10841, #115907, #31785, #31697, #51161, #36123; Addgene, Cambridge, MA, USA). […]

[3] = test system: 4T1.2 mammary tumor cells; test: MTT viability assay; type: cell-based, mouse
Description: as §2

4T1.2 cells = test: Western blot of proteins in treated tumor cells; type: cell-based, mouse
Protocol: as §1

[4] = test system: tumor cells (MDA-MB-231, 4T1.2, EO771) vs non-tumor cells (MSCs, MLO-A5 osteocytes); test: MTT-based tumor selectivity (MSC CMs, Calr, Ppib); type: cell-based; details: (reduction in MTT viability of tumor cells)/(reduction in non-tumor cells)
Protocol: Tumor-selective inhibition by MSC CMs and Calr. […] The inhibitory ratio was defined sing MTT-based viability as (reduction in MTT-based viability of tumor cells)/(reduction in MTT-based viability of non-tumor cells). […] Using three tumor cells (MDA-MB-231, 4T1.2, and EO771) and two non-tumor cells (MSCs, and MLO-A5 osteocytes), tumor selectivity for Lrp5 CM, Akt CM, Calr, and Ppib (FIG. 22) was determined. […] Akt CM also presented the tumor selectivity of 2.41±0.70.

B1: CXCL5: chemokine applied to EO771 cells (protein, UniProt P50228 41-132, looked up)
C-X-C motif chemokine 5: APSSVIAATELRCVCLTVTPKINPKLIANLEVIPAGPQCPTVEVIAKLKNQKEVCLDPEAPVIKKIIQKILGSDKKKAKRNALAVERTASVQ
tumor-promoting/tumorigenic proteins (Lrp5, MMP9, Runx2, TGFβ, Snail, IL1β etc.) in EO771 cells (EO771 cells): increased

B2: Calr: recombinant calreticulin (protein, UniProt P14211 18-416, looked up)
Calreticulin: DPAIYFKEQFLDGDAWTNRWVESKHKSDFGKFVLSSGKFYGDLEKDKGLQTSQDARFYALSAKFEPFSNKGQTLVVQFTVKHEQNIDCGGGYVKLFPSGLDQKDMHGDSEYNIMFGPDICGPGTKKVHVIFNYKGKNVLINKDIRCKDDEFTHLYTLIVRPDNTYEVKIDNSQVESGSLEDDWDFLPPKKIKDPDAAKPEDWDERAKIDDPTDSKPEDWDKPEHIPDPDAKKPEDWDEEMDGEWEPPVIQNPEYKGEWKPRQIDNPDYKGTWIHPEIDNPEYSPDANIYAYDSFAVLGLDLWQVKSGTIFDNFLITNDEAYAEEFGNETWGVTKAAEKQMKDKQDEEQRLKEEEEDKKRKEEEEAEDKEDDDDRDEDEDEEDEKEEDEEESPGQAKDEL
EdU-based proliferation of 4T1.2 cells [1]: significantly inhibited
TRANSWELL invasion of 4T1.2 cells [2]: significantly inhibited
MTT-based viability of 4T1.2 cells [3]: Significant reduction
phosphorylation level of eIF2α in 4T1.2 cells (4T1.2 cells): elevated
tumor-promoting genes (Lrp5, MMP9, Runx2, TGFβ, Snail) in 4T1.2 cells (4T1.2 cells; Western blot): suppressed
tumor selectivity [4]: higher tumor selectivity than Ppib

B3: HSF1: HSF1 recombinant proteins (protein, UniProt P38532 1-525, looked up)
Heat shock factor protein 1: MDLAVGPGAAGPSNVPAFLTKLWTLVSDPDTDALICWSPSGNSFHVFDQGQFAKEVLPKYFKHNNMASFVRQLNMYGFRKVVHIEQGGLVKPERDDTEFQHPCFLRGQEQLLENIKRKVTSVSTLKSEDIKIRQDSVTRLLTDVQLMKGKQECMDSKLLAMKHENEALWREVASLRQKHAQQQKVVNKLIQFLISLVQSNRILGVKRKIPLMLSDSNSAHSVPKYGRQYSLEHVHGPGPYSAPSPAYSSSSLYSSDAVTSSGPIISDITELAPTSPLASPGRSIDERPLSSSTLVRVKQEPPSPPHSPRVLEASPGRPSSMDTPLSPTAFIDSILRESEPTPAASNTAPMDTTGAQAPALPTPSTPEKCLSVACLDKNELSDHLDAMDSNLDNLQTMLTSHGFSVDTSALLDLFSPSVTMPDMSLPDLDSSLASIQELLSPQEPPRPIEAENSNPDSGKQLVHYTAQPLFLLDPDAVDTGSSELPVLFELGESSYFSEGDDYTDDPTISLLTGTEPHKAKDPTVS
MTT-based viability of 4T1.2 cells [3]: reduced

B4: ANXA6: annexin A6 (protein, UniProt P14824 2-673, looked up)
Annexin A6: AKIAQGAMYRGSVHDFPEFDANQDAEALYTAMKGFGSDKESILELITSRSNKQRQEICQNYKSLYGKDLIEDLKYELTGKFERLIVNLMRPLAYCDAKEIKDAISGVGTDEKCLIEILASRTNEQMHQLVAAYKDAYERDLESDIIGDTSGHFQKMLVVLLQGTRENDDVVSEDLVQQDVQDLYEAGELKWGTDEAQFIYILGNRSKQHLRLVFDEYLKTTGKPIEASIRGELSGDFEKLMLAVVKCIRSTPEYFAERLFKAMKGLGTRDNTLIRIMVSRSELDMLDIREIFRTKYEKSLYSMIKNDTSGEYKKALLKLCGGDDDAAGQFFPEAAQVAYQMWELSAVSRVELKGTVCAANDFNPDADAKALRKAMKGIGTDEATIIDIVTHRSNAQRQQIRQTFKSHFGRDLMADLKSEISGDLARLILGLMMPPAHYDAKQLKKAMEGAGTDEKTLIEILATRTNAEIRAINEAYKEDYHKSLEDALSSDTSGHFRRILISLATGNREEGGENRDQAQEDAQVAAEILEIADTPSGDKTSLETRFMTVLCTRSYPHLRRVFQEFIKKTNYDIEHVIKKEMSGDVKDAFVAIVQSVKNKPLFFADKLYKSMKGAGTDEKTLTRVMVSRSEIDLLNIRREFIEKYDKSLHQAIEGDTSGDFMKALLALCGGED
tumor-promoting/tumorigenic proteins (Lrp5, MMP9, Runx2, TGFβ, Snail, IL1β etc.) in EO771 cells (EO771 cells): reduced
